For 7 proteins, kcat/Km results are on record in EP2843044A1, “Improved variant of D-psicose 3-epimerase and uses thereof” (Roquette Frères, priority 2013, dated 2015).

Where a chain is given by its changes, count along the chain named. In names and notes the source's numbering stands.

Substrate in this series: O=C(CO)[C@@H](O)[C@H](O)[C@H](O)CO
Description: Determination of kinetic parameters of DPEase (HPLC assay of D-psicose formed). Format: biochemical, Clostridium cellulolyticum. The conditions noted are these: other: 50 mM Tris-HCl buffer (pH 8.0), 0.1mM Co^2+, 5-200mM substrate, 55 °C. Here is the method:
Kinetic parameters of DPEase variants were determined in 50 mM Tris-HCl buffer (pH 8.0) containing 0.1mM Co^2+ and 5-200mM substrate for reaction at 55 °C. The enzyme reactions were stopped after 10 min by boiling, and the amount of D-psicose was determined by the HPLC assay. Kinetic parameters, such as the Michaelis-Menten constant (Km) and turnover number (kcat) values for substrates, were obtained using the Lineweaver-Burk equation and quantification of enzyme concentration.
The concentrations of D-fructose and D-psicose were analyzed by HPLC equipped with a refractive index detector and a Ca^2+-carbohydrate column (Waters Sugar-Pak 1, Waters Corp., Milford, MA), which was eluted with water at 85 °C and 0.4 mL/min. Protein concentration was determined according to the method of Bradford using bovine serum albumin as a standard. SDS-PAGE was carried out according to the method of Laemmli. Gels (12% w/v polyacrylamide) were stained with Coomassie Brilliant Blue and destained with an aqueous mixture of 10% (v/v) methanol/10% (v/v) acetic acid. Table 1: Enzyme properties and kinetic parameters of the wild-type and mutant enzymes of DPEase from C. cellulolyticum for substrate D-psicose

B1: D-psicose 3-epimerase (DPEase) from Clostridium cellulolyticum, variant G211S, SEQ ID No 4 (Ruminiclostridium cellulolyticum H10; G211S) (protein)
chain: MKHGIYYAYWEQEWEADYKYYIEKVAKLGFDILEIAASPLPFYSDIQINELKACAHGNGITLTVGHGPSAEQNLSSPDPDIRKNAKAFYTDLLKRLYKLDVHLIGGALYSYWPIDYTKTIDKKGDWERSVESVREVAKVAEACGVDFCLEVLNRFENYLINTAQEGVDFVKQVDHNNVKVMLDTFHMNIEEDSIGGAIRTAGSYLGHLHTSECNRKVPGRGRIPWVEIGEALADIGYNGSVVMEPFVRMGGTVGSNIKVWRDISNGADEKMLDREAQAALDFSRYVLECHKHS
notes: made in house; host or cells: Bacillus subtilis WB600 (pMA5)
As for B1, the kcat/Km stood at 150.6 mM^-1 min ^-1.

B2: D-psicose 3-epimerase (DPEase) from Clostridium cellulolyticum, variant G211D (Ruminiclostridium cellulolyticum H10; G211D) (protein)
chain: B1 chain with S211D
notes: as for B1
For B2, the kcat/Km is on record as 86.7 mM^-1 min ^-1.

B3: D-psicose 3-epimerase (DPEase) from Clostridium cellulolyticum, wild type, SEQ ID No 2 (Ruminiclostridium cellulolyticum H10) (protein)
chain: B1 chain with S211G
notes: as for B1
Take B3: the kcat/Km is reported as 62.7 mM^-1 min ^-1.

B4: D-psicose 3-epimerase (DPEase) from Clostridium cellulolyticum, variant G211A (Ruminiclostridium cellulolyticum H10; G211A) (protein)
chain: B1 chain with S211A
notes: as for B1
As to B4, the kcat/Km is listed as 9.8 mM^-1 min ^-1.

B5: D-psicose 3-epimerase (DPEase) from Clostridium cellulolyticum, variant G211W (Ruminiclostridium cellulolyticum H10; G211W) (protein)
chain: B1 chain with S211W
notes: as for B1
For B5, the kcat/Km was 68.1 mM^-1 min ^-1.

B6: D-psicose 3-epimerase (DPEase) from Clostridium cellulolyticum, variant G211L (Ruminiclostridium cellulolyticum H10; G211L) (protein)
chain: B1 chain with S211L
notes: as for B1
Turning to B6, the kcat/Km turned out to be 73.2 mM^-1 min ^-1.

B7: D-psicose 3-epimerase (DPEase) from Clostridium cellulolyticum, variant G211R (Ruminiclostridium cellulolyticum H10; G211R) (protein)
chain: B1 chain with S211R
notes: made in house
For B7, the kcat/Km stood at 26.5 mM^-1 min ^-1.
